The chains are these.
B1: human Hsp90β (natural protein)
chain: not shown
B2: acrylodan-labeled C-terminal domain of Aha1 (164-338) (domain or fragment)
chain: ILPTMNGESVDPVGQPALKTEERKAKPAPSKTQARPVGVKIPTCKITLKETFLTSPEELYRVFTTQELVQAFTHAPATLEADRGGKFHMVDGNVSGEFTDLVPEKHIVMKWRFKSWPEGHFATITLTFIDKNGETELCMEGRGIPAPEEERTRQGWQRYYFEGIKQTFGYGARLF
modifications: acrylodan (thiol-reactive probe on cysteine residues)

Assay [1] addresses B2. Description: other fluorescence titration.
For assay [2], the target named is B1. In words: other fluorescence titration.

The values that follow come from paper doi:10.1101/412908 (bioRxiv, 2018).

As for B1, the “fold increase in Kd with SEW04784 against without” value in assay [1] came out at 2.5 fold.
Take B2: the binding result in assay [2] is “binds”.
